# Results as given in publication doi:10.1101/851345.
# What was measured:
# [1] = biological target: TerL^P74-26, large terminase of bacteriophage P74-26 (bacteriophage P74-26)
# [2] = biological target: TerS^P74-26, small terminase of the thermophilic bacteriophage P74-26 (gp83) (bacteriophage P74-26); assay: SEC-MALS
substance,measurement,setting,value
"TerS^P74-26, small terminase of the thermophilic bacteriophage P74-26 (gp83) (natural protein)","ATPase activity of TerL^P74-26 upon mixing with gp83, no DNA present",[1],4.4 fold
same,stoichiometry N,[2],9
